Laboratory results from article PMC11623273 (2024).

Biological target: T1, soluble HCV E2 ectodomain (sE2) (hepatitis C virus)
T1 chain: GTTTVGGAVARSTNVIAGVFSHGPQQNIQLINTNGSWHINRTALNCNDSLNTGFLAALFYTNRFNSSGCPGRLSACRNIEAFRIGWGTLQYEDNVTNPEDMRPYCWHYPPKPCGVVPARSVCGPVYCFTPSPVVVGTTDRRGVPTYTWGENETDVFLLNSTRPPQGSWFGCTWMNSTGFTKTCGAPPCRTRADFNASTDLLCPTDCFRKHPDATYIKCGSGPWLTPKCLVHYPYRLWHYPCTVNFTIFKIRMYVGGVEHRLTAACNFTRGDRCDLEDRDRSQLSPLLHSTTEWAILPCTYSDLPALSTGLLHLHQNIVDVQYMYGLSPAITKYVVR

B1: Fab fragment of neutralizing antibody HCV1 (Fab, V domains shown)
VH: EVQLLESGGGVVQPGRSLRLSCTASGFTFNNYGMHWVRQTPGKGLEWLAVIWFDENNKYYADSVRGRFTISRDNSKNTLFLQMNSLKTEDTAMYYCARDISLVRDAFIYFDFWGLGTLVTVSS
VL: ELTLTQSPATLSLSPGERATLSCRASQSVSSYLAWYQQKPGQAPRLLIYDASNRATGIPARFSGSGSGTDFTLTISSLEPEDFAVYYCQQRSNWITFGQGTRLEIK
Question: With B1 as the binder, how does the Kd read?
Answer: 294 nM
